This assay addresses T1, CRFR2β (CRF receptor 2 beta) (human, UniProt Q60748 35-411 (mouse entry)).
T1 construct: also called CRFR2b; CRFRIIβ
The assay is described as follows: 125I-BMP7 tracer (5x10^5 cpm) with or without unlabeled BMP7, Ni-NTA pull-down, gamma counting; CRFR2β as control receptor. The method, then: In a particular example, BMPRII, ALK3 and CRFR2β were incubated with 5×10⁵ cpm ¹²⁵I-BMP7 tracer in the presence or absence of 40 nM unlabeled BMP7 as competitor. BMPRII and ALK3 are type II and type I receptors of BMP7, respectively. CRFR2β is a G-protein coupled receptor with no known affinity for BMP7 and was included as a control. Samples were prepared in triplicate in 1.7 ml eppendorf tubes in a final volume of 1 ml binding buffer (150 mM NaCl, 50 mM Tris (pH 7.5), 0.1% BSA). Binding was performed for […] at room temperature. After an initial 60 minutes of binding, 20 μl of 50% Ni—NTA resin (Qiagen) was added to each sample and allowed to bind for the balance of the […] incubation period. Complexes were precipitated by centrifugation and washed three times in 1 ml binding buffer. After the final wash, bound ¹²⁵I-BMP7 tracer was quantified in a gamma counter. BMP7 was iodinated using a modified Cloramine-T procedure (see, e.g., Lawler et al., J. Neurosci. Meth., 49:141-53, 1993).

T1 sequence (Q60748 other isoform, or with tags, fused parts or gaps): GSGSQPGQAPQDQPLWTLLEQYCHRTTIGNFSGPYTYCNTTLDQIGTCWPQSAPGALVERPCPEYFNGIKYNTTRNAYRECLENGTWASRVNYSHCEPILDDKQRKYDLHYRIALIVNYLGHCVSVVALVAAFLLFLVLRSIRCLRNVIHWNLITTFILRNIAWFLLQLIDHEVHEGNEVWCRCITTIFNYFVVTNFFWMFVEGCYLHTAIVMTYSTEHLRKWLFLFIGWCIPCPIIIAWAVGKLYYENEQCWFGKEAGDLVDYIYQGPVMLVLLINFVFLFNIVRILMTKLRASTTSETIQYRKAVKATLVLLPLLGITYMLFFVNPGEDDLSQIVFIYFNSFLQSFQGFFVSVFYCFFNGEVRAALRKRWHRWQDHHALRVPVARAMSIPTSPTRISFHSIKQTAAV

B1: BMP7 (ligand, UniProt P18075 293-431, looked up)
chain: STGSKQRSQNRSKTPKNQEALRMANVAENSSSDQRQACKKHELYVSFRDLGWQDWIIAPEGYAAYYCEGECAFPLNSYMNATNHAIVQTLVHFINPETVPKPCCAPTQLNAISVLYFDDSSNVILKKYRNMVVRACGCH
modifications: 125I-iodinated by a modified Chloramine-T procedure (tracer); unlabeled form used as competitor
notes: also called unlabeled BMP7
As for B1, the binding result is listed as “no binding (tested: 40 nM unlabeled BMP7)”.

Source of the values: US20060211087A1 (SALK INSTITUTE FOR BIOLOGICAL STUDIES, published 2006).
